Test: western blot of conditioned medium, 24 h
Details: glycan lost; control: wild type

| Substance | expression_or_secretion |
| --- | --- |
| antithrombin: S137A | no change |
| antithrombin: S137T | no change |

Source: publication PMC4259341
